Where two headings read alike, the source gives them in different places. Blank lines part the entries; values can stand above or below the binder they belong to. Non-standard residues stand in square brackets, D forms with d. No end group written: not given here. *: point of attachment. Biotin = O=C1N[C@H]2[C@H](CS[C@H]2CCCCC(=O)*)N1; βAla = NCCC(=O)O
Legend:
[1] = target: T1, endogenous EphA2 expressed in PC3 prostate cancer cells (UniProt P29317 24-976, limits assumed); assay: cell-based or functional assay
[2] = target: T1, endogenous EphA2 expressed in PC3 …; assay: cell-based or functional assay; remark: listed apart in the source
[3] = target: T2, EphA2 extracellular domain fused to the Fc portion of an antibody (EphA2 Fc); assay: competition ELISA: inhibition of ephrin-A5 AP binding to immobilized EphA2 Fc; average ± SE (number of experiments)
T2 construct: extracellular domain; Immobilized in the ELISAs
T2 sequence (P29317 whole entry, the tested form may be a part): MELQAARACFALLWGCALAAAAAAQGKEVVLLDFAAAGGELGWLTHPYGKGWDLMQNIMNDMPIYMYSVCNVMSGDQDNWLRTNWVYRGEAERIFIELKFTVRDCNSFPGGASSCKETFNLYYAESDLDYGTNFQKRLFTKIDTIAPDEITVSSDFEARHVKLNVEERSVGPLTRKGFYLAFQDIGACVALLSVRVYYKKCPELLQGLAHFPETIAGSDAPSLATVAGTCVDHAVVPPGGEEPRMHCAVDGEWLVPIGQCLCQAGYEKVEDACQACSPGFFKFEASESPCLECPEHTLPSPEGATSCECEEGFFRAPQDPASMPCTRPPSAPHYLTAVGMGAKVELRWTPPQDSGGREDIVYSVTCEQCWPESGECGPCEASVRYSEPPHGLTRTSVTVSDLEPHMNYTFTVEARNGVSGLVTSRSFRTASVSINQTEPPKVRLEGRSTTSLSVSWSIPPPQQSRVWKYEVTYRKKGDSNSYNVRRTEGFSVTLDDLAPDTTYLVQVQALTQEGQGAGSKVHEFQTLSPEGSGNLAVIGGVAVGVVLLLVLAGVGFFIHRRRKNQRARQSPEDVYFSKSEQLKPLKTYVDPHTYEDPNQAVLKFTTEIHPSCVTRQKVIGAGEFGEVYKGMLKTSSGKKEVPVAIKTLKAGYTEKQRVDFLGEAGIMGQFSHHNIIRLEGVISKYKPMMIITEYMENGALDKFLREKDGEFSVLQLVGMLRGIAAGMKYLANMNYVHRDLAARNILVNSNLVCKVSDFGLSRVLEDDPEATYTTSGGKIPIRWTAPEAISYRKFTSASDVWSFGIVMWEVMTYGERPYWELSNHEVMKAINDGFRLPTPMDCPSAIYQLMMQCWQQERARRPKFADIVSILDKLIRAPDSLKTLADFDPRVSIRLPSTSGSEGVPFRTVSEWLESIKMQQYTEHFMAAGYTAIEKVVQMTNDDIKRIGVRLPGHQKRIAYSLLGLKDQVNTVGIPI

[4] = target: T2, EphA2 extracellular domain fused to the …; assay: ELISA, inhibition of ephrin-A5 AP binding to immobilized EphA2 Fc; representative experiment; concentrations in nM
[5] = target: the molecule itself; assay: quantitative FRET in HEK293 cells, monomer-dimer fit; dimerization of the mutant without peptide; row assigned as for Kdiss
[6] = target: the molecule itself; assay: quantitative FRET in HEK293 cells, monomer-dimer fit; dimerization of the mutant in the presence of 50 µM YSA-GSGSK-bio; row assigned as for Kdiss
[7] = target: T3, EphA2 ligand binding domain (EphA2 LBD, residues 28-200) with N-terminal MASQGPG and C-terminal Ala-6xHis tag (UniProt P29317 28-200); assay: ITC, peptide titrated into EphA2 LBD, 23 °C; average ± SE (number of experiments)
T3 construct: range 28-200; Expressed in E. coli Origami 2 (DE3); used for ITC and crystallization
T3 sequence (P29317 other isoform, or with tags, fused parts or gaps limits assumed, form in doubt): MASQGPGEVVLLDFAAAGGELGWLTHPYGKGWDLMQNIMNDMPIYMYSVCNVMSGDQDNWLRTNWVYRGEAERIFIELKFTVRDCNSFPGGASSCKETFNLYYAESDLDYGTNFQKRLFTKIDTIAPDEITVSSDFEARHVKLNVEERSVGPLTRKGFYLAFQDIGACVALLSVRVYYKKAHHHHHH
Procedure: For ITC, all peptides were dissolved in DMSO and both the EphA2 LBD and the peptides were diluted to obtain a final buffer containing 9.5 mM HEPES, pH 7.9, 95 mM NaCl, and 5% DMSO. […] Two-microliter aliquots of a peptide solution were injected into the cell containing 205 µL EphA2 LBD. 200-400 µM peptides were titrated into 20-40 µM EphA2 LBD. Experimental data were analyzed using the Origin software package (Microcal). The integrated values for the reaction heats were normalized to the amount of injected peptide after blank subtraction.

[8] = target: T1, endogenous EphA2 expressed in PC3 …; assay: cell-based or functional assay; remark: listed apart in the source
[9] = target: T1, endogenous EphA2 expressed in PC3 …; assay: cell-based or functional assay; remark: listed apart in the source
[10] = target: T1, endogenous EphA2 expressed in PC3 …; assay: cell-based or functional assay; remark: listed apart in the source
[11] = target: T1, endogenous EphA2 expressed in PC3 …; assay: cell-based or functional assay; remark: listed apart in the source
[12] = target: T1, endogenous EphA2 expressed in PC3 …; assay: cell-based or functional assay; remark: listed apart in the source
[13] = target: T2, EphA2 extracellular domain fused to the …; assay: competition ELISA: inhibition of ephrin-A5 AP binding to EphA2 Fc
[14] = target: T1, endogenous EphA2 expressed in PC3 …; assay: cell-based or functional assay; remark: listed apart in the source

- EC50 of EphA2 pY588 induction, immunoblot, PC3 cells, 15 min [1]: 2.2 µM
- IC50 of AKT S473 phosphorylation (pAKT), immunoblot, PC3 cells, 15 min [1]: 0.93 µM
Binder: [βAla]WLAYPDSVPYGSK(Biotin) [βA-WLA-YGSK-bio]

- EC50 of EphA2 pY588 induction, immunoblot, PC3 cells, 15 min [2]: 1 µM
Binder: [βAla]WLAYPDSVPYGSGK(Biotin) [βA-WLA-YGSGK-bio]

- IC50 [3]: 300 nM
B1: βA-WLA-YSK-bio (peptide)
peptide: [βAla]WLAYPDSVPYSK(Biotin)
notes: also called bA-WLA-YSK-bio; BA-WLA-YSK-bio

- IC50 [4]: 37 nM
B2: βA-WLA-YRPK-bio (peptide)
peptide: [βAla]WLAYPDSVPYRPK(Biotin)
notes: also called bA-WLA-YRPK-bio; BA-WLA-YRPK-bio

B3: L223R/L254R/V255R (receptor)
chain: AQGKEVVLLDFAAAGGELGWLTHPYGKGWDLMQNIMNDMPIYMYSVCNVMSGDQDNWLRTNWVYRGEAERIFIELKFTVRDCNSFPGGASSCKETFNLYYAESDLDYGTNFQKRLFTKIDTIAPDEITVSSDFEARHVKLNVEERSVGPLTRKGFYLAFQDIGACVALLSVRVYYKKCPELLQGLAHFPETIAGSDAPSRATVAGTCVDHAVVPPGGEEPRMHCAVDGEWRRPIGQCLCQAGYEKVEDACQACSPGFFKFEASESPCLECPEHTLPSPEGATSCECEEGFFRAPQDPASMPCTRPPSAPHYLTAVGMGAKVELRWTPPQDSGGREDIVYSVTCEQCWPESGECGPCEASVRYSEPPHGLTRTSVTVSDLEPHMNYTFTVEARNGVSGLVTSRSFRTASVSINQTEPPKVRLEGRSTTSLSVSWSIPPPQQSRVWKYEVTYRKKGDSNSYNVRRTEGFSVTLDDLAPDTTYLVQVQALTQEGQGAGSKVHEFQTLSPEGSGNLAVIGGVAVGVVLLLVLAGVGFFIHRRRKNQRARQSPEDVYFSKSEQLKPLKTYVDPHTYEDPNQAVLKFTTEIHPSCVTRQKVIGAGEFGEVYKGMLKTSSGKKEVPVAIKTLKAGYTEKQRVDFLGEAGIMGQFSHHNIIRLEGVISKYKPMMIITEYMENGALDKFLREKDGEFSVLQLVGMLRGIAAGMKYLANMNYVHRDLAARNILVNSNLVCKVSDFGLSRVLEDDPEATYTTSGGKIPIRWTAPEAISYRKFTSASDVWSFGIVMWEVMTYGERPYWELSNHEVMKAINDGFRLPTPMDCPSAIYQLMMQCWQQERARRPKFADIVSILDKLIRAPDSLKTLADFDPRVSIRLPSTSGSEGVPFRTVSEWLESIKMQQYTEHFMAAGYTAIEKVVQMTNDDIKRIGVRLPGHQKRIAYSLLGLKDQVNTVGIPI
modifications: A C-terminal fluorescent protein tag (mTURQ donor or EYFP acceptor) is not carried in the letters.
notes: also called EphA2 L223R/L254R/V255R; clustering interface triple mutant; not shown: C-terminal fluorescent protein (mTURQ or EYFP) and any linker to it
- ΔG of dimerization [5]: -3.8 kcal/mol
- ΔG of dimerization [6]: -5 kcal/mol

- Kd [7]: 8000 nM
- IC50 [3]: 4500 nM
- IC50 [4]: 4500 nM
Binder: YSAYPDSVPMMSGSGSK [YSA-GSGSK]

- EC50 of EphA2 pY588 induction, immunoblot, PC3 cells, 15 min [8]: 37 nM
- IC50 of AKT S473 phosphorylation (pAKT), immunoblot, PC3 cells, 15 min [8]: 30 nM
Binder: [βAla]WLAYPDSVPYSPK(Biotin) [βA-WLA-YSPK-bio]

- EC50 of EphA2 pY588 induction, immunoblot, PC3 cells, 15 min [9]: 300 nM
- IC50 of AKT S473 phosphorylation (pAKT), immunoblot, PC3 cells, 15 min [9]: 500 nM
- Kd [7]: 190 nM
- IC50 [3]: 55 nM
- IC50 [4]: 53 nM
Binder: [βAla]WLAYPDSVPYRPK (also called BA-WLA-YRPK) [βA-WLA-YRPK]

- EC50 of restoration of pAKT (S473) in cells treated with 0.1 µg/ml ephrin-A1 Fc, immunoblot, PC3 cells [10]: 2.4 µM
- IC50 of inhibition of EphA2 pY588 induced by 0.1 µg/ml ephrin-A1 Fc, immunoblot, PC3 cells [10]: 3.2 µM
- Kd [7]: 110 nM
- IC50 [3]: 19 nM
- IC50 [4]: 24 nM
Binder: [βAla]WLAYPDSVPYRPK-NH2 (also called BA-WLA-YRPKam) [βA-WLA-YRPKam]

- EC50 of EphA2 pY588 induction, immunoblot, PC3 cells, 15 min [11]: 100 nM
- IC50 of AKT S473 phosphorylation (pAKT), immunoblot, PC3 cells, 15 min [11]: 210 nM
Binder: [βAla]WLAYPDSVPYRPK(Biotin)-NH2 [βA-WLA-YRPKam-bio]

- IC50 [3]: 820 nM
B4: YSA-GSGSK-bio (peptide)
peptide: YSAYPDSVPMMSGSGSK(Biotin)
notes: YSA with C-terminal GSGSK linker and biotin on the lysine side chain; also called YSA-GSGSK-biotin; YSA-GSGSK-bio peptide

- EC50 of EphA2 pY588 induction, immunoblot, PC3 cells, 15 min [12]: 190 nM
- IC50 of AKT S473 phosphorylation (pAKT), immunoblot, PC3 cells, 15 min [12]: 370 nM
Binder: [βAla]WLAYPDSVPYRPK(Ac) [βA-WLA-YRP-acK]

- IC50 [4]: 14 nM
Binder: KAWLAYPDSVPYRPK (biotin on the N-terminal lysine (K-bio); C-terminal amide (am)) [K-bioA-WLA-YRPKam]

- fold improvement in potency against βA-WLAam [13]: ~2 fold
- IC50 [3]: 410 nM
- IC50 [4]: 440 nM
Binder: [βAla]WLAYPDSVPY-NH2 (also called bA-WLA-Yam; BA-WLA-Yam) [βA-WLA-Yam]

- IC50 of AKT S473 phosphorylation (pAKT), immunoblot, PC3 cells, 15 min [14]: 0.97 µM
Binder: [βAla]WLAYPDSVPYK(Biotin) [βA-WLA-YK-bio]

— US12398179 (SANFORD BURNHAM PREBYS MEDICAL DISCOVERY INSTITUTE, dated 2025)
